Values quoted from earlier work as cited in publication PMC9477731.
pKd: −log10 of the molar value.

Target: CD28 (Homo sapiens) (UniProt P10747)

For CD80 (from UniProt P33681), the pKd is given as 5.40.
